Measured values published in patent US20230272445A1.

Target: purified active porcine pancreatic elastase (porcine) (UniProt P00772)
Assay: cell-based or functional assay

Chain of UniProt P00772 (P00772 27-266 limits assumed): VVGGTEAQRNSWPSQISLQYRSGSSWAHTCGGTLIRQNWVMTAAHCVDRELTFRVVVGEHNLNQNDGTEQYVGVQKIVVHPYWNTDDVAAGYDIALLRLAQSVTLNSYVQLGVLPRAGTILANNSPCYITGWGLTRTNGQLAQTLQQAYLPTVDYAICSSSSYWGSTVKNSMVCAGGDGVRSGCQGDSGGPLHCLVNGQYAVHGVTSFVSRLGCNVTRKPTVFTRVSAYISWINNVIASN

Question: With “plasma-derived human alpha-1-antitrypsin (Prolastin-C) (from UniProt P01009 25-418)” as the substance, how does the A1AT concentration at which a decrease in elastase activity was detected read?
Answer: > 0.1 µM
